Data on six molecules can be found in US20250230224A1 (University of California, published 2025).

Experiment in all cases: KinExA flow fluorimetry, solution phase, IgG
Test [1] addresses Mosaic botulinum neurotoxin BoNT/DC (Clostridium botulinum).
The target in test [2] is T1, Botulinum neurotoxin serotype C (BoNT/C) (Clostridium botulinum, UniProt P18640 2-1291).
T1 sequence: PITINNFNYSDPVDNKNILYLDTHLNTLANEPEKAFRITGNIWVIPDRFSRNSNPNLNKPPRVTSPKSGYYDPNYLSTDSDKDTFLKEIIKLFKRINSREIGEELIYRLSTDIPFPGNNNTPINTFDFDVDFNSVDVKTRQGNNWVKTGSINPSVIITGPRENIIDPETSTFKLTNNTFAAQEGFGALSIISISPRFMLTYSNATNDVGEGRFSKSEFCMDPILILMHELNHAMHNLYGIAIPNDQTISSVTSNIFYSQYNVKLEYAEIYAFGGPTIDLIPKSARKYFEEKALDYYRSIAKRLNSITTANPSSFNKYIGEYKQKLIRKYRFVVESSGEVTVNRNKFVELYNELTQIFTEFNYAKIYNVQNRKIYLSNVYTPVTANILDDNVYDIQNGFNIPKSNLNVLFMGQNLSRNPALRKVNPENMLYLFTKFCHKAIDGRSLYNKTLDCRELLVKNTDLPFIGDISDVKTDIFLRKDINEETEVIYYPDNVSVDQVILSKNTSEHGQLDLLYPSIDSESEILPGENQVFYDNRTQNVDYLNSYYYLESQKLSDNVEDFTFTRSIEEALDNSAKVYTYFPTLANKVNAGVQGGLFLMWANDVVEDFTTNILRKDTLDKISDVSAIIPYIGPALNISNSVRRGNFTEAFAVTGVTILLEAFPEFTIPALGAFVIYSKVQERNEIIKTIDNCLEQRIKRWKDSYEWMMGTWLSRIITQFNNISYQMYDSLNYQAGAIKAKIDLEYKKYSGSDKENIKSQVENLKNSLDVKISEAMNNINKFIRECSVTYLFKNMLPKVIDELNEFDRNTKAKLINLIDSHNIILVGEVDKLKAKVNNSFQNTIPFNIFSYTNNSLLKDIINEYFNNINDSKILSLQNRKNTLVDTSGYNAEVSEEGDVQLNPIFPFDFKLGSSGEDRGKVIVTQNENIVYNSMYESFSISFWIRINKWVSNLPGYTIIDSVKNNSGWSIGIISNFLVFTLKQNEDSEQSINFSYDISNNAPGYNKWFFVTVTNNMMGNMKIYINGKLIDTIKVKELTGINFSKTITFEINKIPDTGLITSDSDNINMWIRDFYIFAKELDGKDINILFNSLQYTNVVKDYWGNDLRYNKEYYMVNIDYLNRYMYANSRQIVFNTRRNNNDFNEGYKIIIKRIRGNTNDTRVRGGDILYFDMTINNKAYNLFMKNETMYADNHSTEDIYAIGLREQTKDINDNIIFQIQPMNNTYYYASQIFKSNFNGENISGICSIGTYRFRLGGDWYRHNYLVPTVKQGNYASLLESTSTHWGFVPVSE

Test [3] has as its target T2, Botulinum neurotoxin serotype D (BoNT/D) (Clostridium botulinum, UniProt P19321 2-1276).
T2 sequence: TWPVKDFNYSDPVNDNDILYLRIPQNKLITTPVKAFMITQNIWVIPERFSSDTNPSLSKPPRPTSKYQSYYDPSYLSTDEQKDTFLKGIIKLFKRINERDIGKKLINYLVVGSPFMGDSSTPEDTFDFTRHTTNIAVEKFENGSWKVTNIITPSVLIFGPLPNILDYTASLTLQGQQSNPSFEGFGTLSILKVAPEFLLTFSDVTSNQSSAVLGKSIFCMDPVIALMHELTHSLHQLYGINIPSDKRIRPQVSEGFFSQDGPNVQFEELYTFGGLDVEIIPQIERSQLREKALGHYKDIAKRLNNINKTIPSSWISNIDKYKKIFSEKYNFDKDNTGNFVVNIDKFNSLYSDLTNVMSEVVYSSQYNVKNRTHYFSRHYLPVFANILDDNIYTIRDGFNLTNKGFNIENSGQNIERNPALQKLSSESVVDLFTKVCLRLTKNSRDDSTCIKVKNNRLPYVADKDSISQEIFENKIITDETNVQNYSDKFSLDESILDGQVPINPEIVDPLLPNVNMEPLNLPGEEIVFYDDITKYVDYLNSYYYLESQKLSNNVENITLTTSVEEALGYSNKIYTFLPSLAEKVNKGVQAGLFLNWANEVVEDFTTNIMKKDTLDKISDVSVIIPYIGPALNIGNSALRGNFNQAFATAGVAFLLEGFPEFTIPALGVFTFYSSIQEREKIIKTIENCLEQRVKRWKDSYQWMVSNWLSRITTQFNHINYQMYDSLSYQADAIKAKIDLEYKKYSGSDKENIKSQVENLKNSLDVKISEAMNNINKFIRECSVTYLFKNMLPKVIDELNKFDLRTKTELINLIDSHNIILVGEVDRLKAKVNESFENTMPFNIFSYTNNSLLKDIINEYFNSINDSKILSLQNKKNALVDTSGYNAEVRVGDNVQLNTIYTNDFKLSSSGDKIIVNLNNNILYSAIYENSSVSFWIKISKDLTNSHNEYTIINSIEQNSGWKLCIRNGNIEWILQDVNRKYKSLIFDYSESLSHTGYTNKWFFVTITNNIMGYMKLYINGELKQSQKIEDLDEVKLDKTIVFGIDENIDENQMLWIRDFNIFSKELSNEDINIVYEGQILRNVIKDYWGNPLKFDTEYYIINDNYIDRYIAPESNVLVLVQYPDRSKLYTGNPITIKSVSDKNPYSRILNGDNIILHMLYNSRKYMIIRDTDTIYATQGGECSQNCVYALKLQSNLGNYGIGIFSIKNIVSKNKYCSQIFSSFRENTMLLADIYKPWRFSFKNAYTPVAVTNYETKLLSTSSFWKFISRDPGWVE

Where a chain is given by its changes, count along the chain named.

In general, Kd refers to the concentration at which binding is half-saturated. Read a low Kd as tighter binding.

B1: 8DC4.1 IgG (antibody, V domains shown)
VH: QVQLQESGPGLVKPSQTLSLTCTVSGGSISSDNYFWTWIRQSPGKGLEWLGHISYSGRSYTNLSLKRRLTISVDTSKNQFSLNLNSVTAADTAVYYCARERLPPGRGYDMDVWGQGTTVTVSS
VL: not shown
With B1, the Kd in test [1], in test [2] and in test [3] was 1.4 nM each time.

B2: 8DC4.4 IgG (antibody, V domains shown)
VH: B1 VH
VL: DIVMTQSPSSVSASVGDRVTITCRASRDISIYLNWYQQKPGKAPKLLIYAASNLETGVPSRFSGSGSGTDFTLTISSLQPEDVATYYCQQSYNTPLTFGGGTKLEIKR
Consider B2, for which the Kd in test [2] is 0.136 nM; in test [3] it was 0.157 nM.

B3: 4C4 IgG (antibody, V domains shown)
VH: QVQLVESGPGLVKPSQTLSLTCSVSGASINNSPYFWNWFRQFPGKGLEWIGYIYWSGSTNYNPSLKSRLAMSVDTSKNQFSLKLTSATAADTAVYYCARDQGGGTVVKENWFDPWGQGTLVTVSS
VL: DIVMTQSPSSLSASVGDRLTMTCQASQDIGKHLNWYQQKAGKPPKLLIYGASNLKTGVPSRFSAGVSWTDFTFTISNVQPEDVATYYCQQSYSTPPTFGQGTKVEIK
As to B3, the Kd in test [1] was found to be 0.597 nM; in test [2], 0.888 nM.

B4: 4C4.1 IgG (antibody, V domains shown)
VH: B3 VH
VL: ETTLTQSPSSLSASVGDRVSITCRASQSISNYLNWYQQKPGKAPKLLIYAASSLQSGVPSRFSGSGSGTDFTLTISSLQPEDFATYYCQQSYSDPPTFGQGTKVEIK
As to B4, the values for the Kd in test [1], in test [2] and in test [3] were 0.058 nM, 0.57 nM and 0.898 nM, respectively.

B5: 4C4.4 IgG (antibody, V domains shown)
VH: B3 VH with V5Q, S23T, N30S
VL: DIVMTQSPSSLSASVGDRLTMTCQASQDIGKHLNWYQQKAGKPPKLLIYGASNLKTGVPSRFSAGVSWTDFTFTISNVQPEDVATYYCQQSYSTPPTFGQGTKVEIKR
In test [2], B5 gave a Kd of 0.016 nM.

B6: 4C4.2 IgG (antibody, V domains shown)
VH: B3 VH
VL: DIQMTQSPSTLSASVGDRVTITCRASQSIGTYLNWYQQKPGRAPTLLVSRTSNLHTGVPSRFSGDGSGSHFSLTIDSLQPEDFATYYCQQSHTSPVTFGQGTKVEIK
For B6, the Kd stood at 0.126 nM in test [1], 0.035 nM in test [2] and 0.254 nM in test [3].
